{
  "source": "patent US8652473B2",
  "about": "“Antibodies to EGF receptor epitope peptides and uses thereof” (Ludwig Institute for Cancer Research Ltd., priority 2004, dated 2014)",
  "key": {"Y^246D EGFR": {"target": "T1, Y^246D EGFR (Homo sapiens, UniProt P00533, Y270D)", "T1 construct": "expressed in transfected cells", "assay": "Scatchard analysis of 125I-EGF binding, BaF/3 Y246D", "conditions": "BaF/3 Y^246D", "method": "(§1) Single point mutations of the wild-type EGFR were generated using a site-directed mutagenesis kit (Stratagene, La Jolla, Calif.). The template for each mutagenesis was the human EGFR cDNA; (24)) containing the leader sequence followed by a FLAG tag coding sequence, in the mammalian expression vector pcDNA3 (Invitrogen, Carlsbad, Calif.) as described in (4). The automated nucleotide sequencing of each construct was performed to confirm the integrity of each EGF receptor mutation. EGFR expression constructs were transiently expressed in 293 cells (American Type Culture Collection, Manassas, Va.) and the presence of receptor protein determined by staining with 528 and M2 antibodies to confirm expression at the cell surface and to ensure protein folding occurred appropriately (data not shown).\n(§2) Wild-type and mutant EGFRs constructs were transfected into the IL-3-dependent murine hemopoietic cell line BaF/3 as described previously (25). Transfected cells were selected in G418 for 10 days. Viable cells were screened for EGFR expression by FACS analysis on a FACStar (Beckton and Dickinson, Franklin Lakes, N.J.) using antibodies to the flag tag (M2: 10 μg/ml in PBS/5% FCS/5 mMEDTA) and/or to the EGFR extracellular domain (mAb528: 10 μg/ml in PBS/5% FCS/5 mMEDTA) followed by Alexa 488-labelled anti-mouse Ig (1:400 final dilution). Background fluorescence was determined by incubating the cells with an irrelevant, class matched primary antibody. Positive pools were sorted for the appropriate level of EGFR expression on a FACS-DIVA (Becton and Dickinson). After final selection, mRNA was isolated from each cell line and all mutations in the EGFR were confirmed by PCR annalysis. […]\n(§3) Murine EGF, purified from mouse submaxillary glands (27), was iodinated using Iodogen (28) to a specific activity of 5-8×10^5 cpm/pmol. Ligand binding to cells expressing the wt or mutant EGFR was determined at room temperature in the presence of the […] […] Non-specific binding was determined using a 500-fold excess of unlabelled EGF over ^125I-EGF. […]"}, "L^245C/E^578C EGFR": {"target": "T2, L^245C/E^578C EGFR (Homo sapiens, UniProt P00533, E602C/L269C)", "T2 construct": "expressed in transfected cells", "assay": "Scatchard analysis of 125I-EGF binding, BaF/3 L245C/E578C", "conditions": "BaF/3 L^245C/E^578C; less than 10% of number by FACS or immunoblotting", "method": "as §1\n(§4) Wild-type and mutant EGFRs constructs were transfected into the IL-3-dependent murine hemopoietic cell line BaF/3 as described previously (25). […] Background fluorescence was determined by incubating the cells with an irrelevant, class matched primary antibody. […]\nas §3"}, "D^563H EGFR": {"target": "T3, D^563H EGFR (Homo sapiens, UniProt P00533, D587H)", "T3 construct": "expressed in transfected cells", "assay": "Scatchard analysis of 125I-EGF binding, BaF/3 D563H", "conditions": "BaF/3 D^563H", "method": "as §1\n(§5) Wild-type and mutant EGFRs constructs were transfected into the IL-3-dependent murine hemopoietic cell line BaF/3 as described previously (25). Transfected cells were selected in G418 for 10 days. Viable cells were screened for EGFR expression by FACS analysis on a FACStar (Beckton and Dickinson, Franklin Lakes, N.J.) using antibodies to the flag tag (M2: 10 μg/ml in PBS/5% FCS/5 mMEDTA) and/or to the EGFR extracellular domain (mAb528: 10 μg/ml in PBS/5% FCS/5 mMEDTA) followed by Alexa 488-labelled anti-mouse Ig (1:400 final dilution). Background fluorescence was determined by incubating the cells with an irrelevant, class matched primary antibody. Positive pools were sorted for the appropriate level of EGFR expression on a FACS-DIVA (Becton and Dickinson). After final selection, mRNA was isolated from each cell line and all mutations in the EGFR were confirmed by PCR annalysis. All cells were routinely passaged in RPMI/10% FCS/10% WEHI3B conditioned medium (26) and 1.5 mg/ml G418.\n(§6) Murine EGF, purified from mouse submaxillary glands (27), was iodinated using Iodogen (28) to a specific activity of 5-8×10^5 cpm/pmol. Ligand binding to cells expressing the wt or mutant EGFR was determined at room temperature in the presence of the […] (PAO) (29) by cold saturation experiments. Briefly, cells were incubated in PBS/1% BSA/30 μM PAO with or without increasing amounts of unlabelled EGF (20 pM-5.12 nM) and with a constant amount (300 pM) of ^125I EGF. Non-specific binding was determined using a 500-fold excess of unlabelled EGF over ^125I-EGF. All experimental points were prepared in triplicate. At the end of the incubation, the cells were pelleted and washed twice in ice-cold PBS before transferring to fresh tubes for counting in a Wallac WIZARD γ-counter (PerkinElmer, Boston, Mass.). Scatchard plots and estimates of ligand binding affinities and receptor numbers were obtained using the Radlig program (BioSoft, Cambridge, UK)."}, "V^583D EGFR": {"target": "T4, V^583D EGFR (Homo sapiens, UniProt P00533, V607D)", "T4 construct": "expressed in transfected cells", "assay": "Scatchard analysis of 125I-EGF binding, BaF/3 V583D", "conditions": "BaF/3 V^583D", "method": "as §1, §5, §6"}, "E^578C EGFR": {"target": "T5, E^578C EGFR (Homo sapiens, UniProt P00533, E602C)", "T5 construct": "expressed in transfected cells", "assay": "Scatchard analysis of 125I-EGF binding, BaF/3 E578C", "conditions": "BaF/3 E^578C", "method": "as §1, §4, §3"}, "Y^246F EGFR": {"target": "T6, Y^246F EGFR (Homo sapiens, UniProt P00533, Y270F)", "T6 construct": "expressed in transfected cells", "assay": "Scatchard analysis of 125I-EGF binding, BaF/3 Y246F", "conditions": "BaF/3 Y^246F", "method": "as §1, §2, §3"}, "Y^246W EGFR": {"target": "T7, Y^246W EGFR (Homo sapiens, UniProt P00533, Y270W)", "T7 construct": "expressed in transfected cells", "assay": "Scatchard analysis of 125I-EGF binding, BaF/3 Y246W", "conditions": "BaF/3 Y^246W", "method": "as §1, §2, §3"}, "wt-EGFR": {"target": "T8, wt-EGFR (Homo sapiens, UniProt P00533)", "T8 construct": "[…]; expressed in transfected cells", "assay": "Scatchard analysis of 125I-EGF binding, BaF/3 wt-EGFR", "method": "as §1, §5, §6"}, "[1]": {"conditions": "high affinity sites, listed as 125I-EGF"}},
  "note": "Marks after values point to notes of the source that are not given here.",
  "data": [
    {"substance": "EGF: Murine EGF purified from mouse submaxillary glands, iodinated for binding; EGFR ligand", "values": [
      {"measurement": "% of sites (Kd2)", "setting": "Y^246D EGFR", "result": "(100) %"},
      {"measurement": "R/cell (from Bmax)", "setting": "Y^246D EGFR", "result": "1.2 +/− 0.1 R/cell × 10^−4"},
      {"measurement": "[EGF] at which 500R/cell are occupied", "setting": "Y^246D EGFR; calculated from Kd and Bmax", "result": 400, "unit": "pM"},
      {"measurement": "R/cell (from Bmax)", "setting": "L^245C/E^578C EGFR", "result": "0.37 +/− 0.002^b R/cell × 10^−4"},
      {"measurement": "R/cell (from Bmax)", "setting": "D^563H EGFR", "result": "2.3 +/− 0.8 R/cell × 10^−4"},
      {"measurement": "[EGF] at which 500R/cell are occupied", "setting": "D^563H EGFR; calculated from Kd and Bmax", "result": 8, "unit": "pM"},
      {"measurement": "% of sites (Kd1)", "setting": "D^563H EGFR; high affinity sites", "result": "4.4 +/− 0.7) %"},
      {"measurement": "% of sites (Kd2)", "setting": "D^563H EGFR; low affinity sites", "result": "96.4 +/− 0.7%"},
      {"measurement": "R/cell (from Bmax)", "setting": "V^583D EGFR", "result": "3.8 +/− 0.71 R/cell × 10^−4"},
      {"measurement": "[EGF] at which 500R/cell are occupied", "setting": "V^583D EGFR; calculated from Kd and Bmax", "result": "<1", "unit": "pM"},
      {"measurement": "% of sites (Kd1)", "setting": "V^583D EGFR; [1]", "result": "12.6 +/− 4%"},
      {"measurement": "% of sites (Kd2)", "setting": "V^583D EGFR; low affinity sites", "result": "90.8 +/− 1.9%"},
      {"measurement": "R/cell (from Bmax)", "setting": "E^578C EGFR", "result": "3.45 +/− 0.12 R/cell × 10^−4"},
      {"measurement": "[EGF] at which 500R/cell are occupied", "setting": "E^578C EGFR; calculated from Kd and Bmax", "result": "~80", "unit": "pM"},
      {"measurement": "% of sites (Kd2)", "setting": "Y^246F EGFR", "result": "(100) %"},
      {"measurement": "R/cell (from Bmax)", "setting": "Y^246F EGFR", "result": "3.0 +/− 0.2 R/cell × 10^−4"},
      {"measurement": "[EGF] at which 500R/cell are occupied", "setting": "Y^246F EGFR; calculated from Kd and Bmax", "result": 30, "unit": "pM"},
      {"measurement": "% of sites (Kd2)", "setting": "Y^246W EGFR", "result": "(100) %"},
      {"measurement": "R/cell (from Bmax)", "setting": "Y^246W EGFR", "result": "2.9 +/− 0.2 R/cell × 10^−4"},
      {"measurement": "[EGF] at which 500R/cell are occupied", "setting": "Y^246W EGFR; calculated from Kd and Bmax", "result": "~60", "unit": "pM"},
      {"measurement": "R/cell (from Bmax)", "setting": "wt-EGFR", "result": "3.4 +/− 0.7 R/cell × 10^−4"},
      {"measurement": "[EGF] at which 500R/cell are occupied", "setting": "wt-EGFR; calculated from Kd and Bmax", "result": "~15", "unit": "pM"},
      {"measurement": "% of sites (Kd1)", "setting": "wt-EGFR; [1]", "result": "2.6 +/− 0.4%"},
      {"measurement": "% of sites (Kd2)", "setting": "wt-EGFR; low affinity sites", "result": "97.5 +/− 0.49%"}
    ]}
  ]
}
